From PMC4655838, “Versatility in phospho-dependent molecular recognition of the XRCC1 and XRCC4 DNA-damage scaffolds by aprataxin-family FHA domains” (DNA Repair, 2015)
Numbering of substitutions follows the chain as printed. Square brackets hold non-standard residues; d marks the D form. Ends that are not written are not given here. pT = C[C@@H](OP(=O)(O)O)[C@H](N)C(=O)O; pS = N[C@@H](COP(=O)(O)O)C(=O)O

Legend:
[1] = target: T1, APLF FHA domain (residues 1-106) (UniProt Q8IW19 1-106); test: ITC; peptide injected (30 x 10 ul) into FHA domain in the cell; 22 °C; 50 mM HEPES pH 7.5, 150 mM NaCl, 5 mM β-mercaptoethanol; XRCC1 peptides 1 mM into 100 μM protein, XRCC4 peptides 300 μM into 30 μM protein; single-site binding model; conditions: both partners purified
T1 construct: Cloned BamHI/XhoI in pGEX-6P-1; also called aprataxin- and PNKP-like factor FHA domain; source: E. coli Rosetta2 (DE3), purified (glutathione resin, cleaved with rhinovirus 3C protease, Superdex 75); not shown: GST, N-terminal, cleaved
T1 sequence (looked up): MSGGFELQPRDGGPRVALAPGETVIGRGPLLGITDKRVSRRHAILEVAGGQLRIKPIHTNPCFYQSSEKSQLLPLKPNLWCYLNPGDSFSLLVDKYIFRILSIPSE

[2] = target: T2, selenomethionine-labelled APLF FHA domain L91M (residues 1-106) (UniProt Q8IW19 1-106, L91 M, selenomethionine-labelled); test: crystal structure; selenomethionine-labelled APLF FHA L91M with peptide at 1:3; hanging drops at 18 °C, 0.1 M Tris pH 8.0, 30% PEG 3350, 0.2 M MgCl2; SAD, refined at 1.4 Å; conditions: both partners purified
T2 construct: residues 1-104 are in the final model; also called APLF L91 M; APLF/XRCC4 SeMet; source: E. coli Rosetta2 (DE3) in SelenoMet medium, purified as the wild-type protein; not shown: GST, N-terminal, cleaved
T2 sequence (looked up): T1 sequence (looked up) with L91M

B1: XRCC1 515-529 peptide phosphorylated on Ser518 and Thr519 (peptide)
peptide: YAGSTDENTDSEEHQ
HELM: PEPTIDE1{Y.A.G.[O=C([C@H](COP(=O)(O)O)N[*:1])[*:2]].[C[C@@H](OP(=O)(O)O)[C@H](N[*:1])C(=O)[*:2]].D.E.N.T.D.S.E.E.H.Q.[am]}$$$$V2.0; N-terminus assumed
SMILES: C[C@H](NC(=O)[C@@H](N)Cc1ccc(O)cc1)C(=O)NCC(=O)N[C@@H](COP(=O)(O)O)C(=O)N[C@H](C(=O)N[C@@H](CC(=O)O)C(=O)N[C@@H](CCC(=O)O)C(=O)N[C@@H](CC(N)=O)C(=O)N[C@H](C(=O)N[C@@H](CC(=O)O)C(=O)N[C@@H](CO)C(=O)N[C@@H](CCC(=O)O)C(=O)N[C@@H](CCC(=O)O)C(=O)N[C@@H](Cc1c[nH]cn1)C(=O)N[C@@H](CCC(N)=O)C(N)=O)[C@@H](C)O)[C@@H](C)OP(=O)(O)O
notes: XRCC1 residues 515-529; also called di-phosphorylated XRCC1 peptide; source: synthetic peptide (Dr. W. Mawby, University of Bristol), purified by HPLC
In the case of B1, the “fold increase in binding over the mono-phosphorylated peptide” value [1] is reported as ~3 fold.

B2: XRCC4 229-237 peptide phosphorylated on Thr233 (peptide)
peptide: YDESTDEES
HELM: PEPTIDE1{Y.D.E.S.[C[C@@H](OP(=O)(O)O)[C@H](N[*:1])C(=O)[*:2]].D.E.E.S.[am]}$$$$V2.0; N-terminus assumed
SMILES: C[C@@H](OP(=O)(O)O)[C@H](NC(=O)[C@H](CO)NC(=O)[C@H](CCC(=O)O)NC(=O)[C@H](CC(=O)O)NC(=O)[C@@H](N)Cc1ccc(O)cc1)C(=O)N[C@@H](CC(=O)O)C(=O)N[C@@H](CCC(=O)O)C(=O)N[C@@H](CCC(=O)O)C(=O)N[C@@H](CO)C(N)=O
notes: also called mono-phosphorylated (pT233) XRCC4; XRCC4 peptide phosphorylated solely on the threonine in the core motif; source: synthetic peptide (Dr. W. Mawby, University of Bristol), purified by HPLC
With B2 the “fold tighter binding than the XRCC1 pThr519 peptide” value [1] was ~8 fold.

B3: XRCC1 515-529 peptide phosphorylated on Ser518, Thr519, Thr523 and Ser525 (peptide)
peptide: YAG[pS][pT]DEN[pT]D[pS]EEHQ-NH2
modifications: N-terminus assumed
SMILES: C[C@H](NC(=O)[C@@H](N)Cc1ccc(O)cc1)C(=O)NCC(=O)N[C@@H](COP(=O)(O)O)C(=O)N[C@H](C(=O)N[C@@H](CC(=O)O)C(=O)N[C@@H](CCC(=O)O)C(=O)N[C@@H](CC(N)=O)C(=O)N[C@H](C(=O)N[C@@H](CC(=O)O)C(=O)N[C@@H](COP(=O)(O)O)C(=O)N[C@@H](CCC(=O)O)C(=O)N[C@@H](CCC(=O)O)C(=O)N[C@@H](Cc1c[nH]cn1)C(=O)N[C@@H](CCC(N)=O)C(N)=O)[C@@H](C)OP(=O)(O)O)[C@@H](C)OP(=O)(O)O
notes: XRCC1 residues 515-529; also called tetra-phosphorylated XRCC1 peptide; source: synthetic peptide (Dr. W. Mawby, University of Bristol), purified by HPLC
For B3, the “stoichiometry N” value [1] was ~2 APLF FHA domains per peptide.

B4: XRCC4 229-237 peptide phosphorylated on Ser232, Thr233 and Ser237 (peptide)
peptide: YDE[pS][pT]DEE[pS]-NH2
modifications: N-terminus assumed
SMILES: C[C@@H](OP(=O)(O)O)[C@H](NC(=O)[C@H](COP(=O)(O)O)NC(=O)[C@H](CCC(=O)O)NC(=O)[C@H](CC(=O)O)NC(=O)[C@@H](N)Cc1ccc(O)cc1)C(=O)N[C@@H](CC(=O)O)C(=O)N[C@@H](CCC(=O)O)C(=O)N[C@@H](CCC(=O)O)C(=O)N[C@@H](COP(=O)(O)O)C(N)=O
notes: also called tri-phosphorylated XRCC4 peptide; triphosphorylated XRCC4; source: synthetic peptide (Dr. W. Mawby, University of Bristol), purified by HPLC
B4: binds [2].

B5: XRCC1 515-529 peptide phosphorylated on Ser518, Thr519 and Thr523 (peptide)
peptide: YAG[pS][pT]DEN[pT]DSEEHQ-NH2
modifications: N-terminus assumed
SMILES: C[C@H](NC(=O)[C@@H](N)Cc1ccc(O)cc1)C(=O)NCC(=O)N[C@@H](COP(=O)(O)O)C(=O)N[C@H](C(=O)N[C@@H](CC(=O)O)C(=O)N[C@@H](CCC(=O)O)C(=O)N[C@@H](CC(N)=O)C(=O)N[C@H](C(=O)N[C@@H](CC(=O)O)C(=O)N[C@@H](CO)C(=O)N[C@@H](CCC(=O)O)C(=O)N[C@@H](CCC(=O)O)C(=O)N[C@@H](Cc1c[nH]cn1)C(=O)N[C@@H](CCC(N)=O)C(N)=O)[C@@H](C)OP(=O)(O)O)[C@@H](C)OP(=O)(O)O
notes: XRCC1 residues 515-529; also called YAGpSpTDENpTDSEEHQ; tri-phosphorylated XRCC1 peptide; source: synthetic peptide (Dr. W. Mawby, University of Bristol), purified by HPLC
For B5, the “fold weaker binding than the triphosphorylated XRCC4 peptide” value [1] was 26 fold and the “stoichiometry N” value [1] was ~2 APLF FHA domains per peptide.
